{"source": "paper doi:10.1101/2024.03.12.584703", "binders": {"B1": {"name": "His-tagged human ALPL (recombinant) (receptor)", "chain": "LVPEKEKDPKYWRDQAQETLKYALELQKLNTNVAKNVIMFLGDGMGVSTVTAARILKGQLHHNPGEETRLEMDKFPFVALSKTYNTNAQVPDSAGTATAYLCGVKANEGTVGVSAATERSRCNTTQGNEVTSILRWAKDAGKSVGIVTTTRVNHATPSAAYAHSADRDWYSDNEMPPEALSQGCKDIAYQLMHNIRDIDVIMGGGRKYMYPKNKTDVEYESDEKARGTRLDGLDLVDTWKSFKPRYKHSHFIWNRTELLTLDPHNVDYLLGLFEPGDMQYELNRNNVTDPSLSEMVVVAIQILRKNPKGFFLLVEGGRIDHGHHEGKAKQALHEAVEMDRAIGQAGSLTSSEDTLTVVTADHSHVFTFGGYTPRGNSIFGLAPMLSDTDKKPFTAILYGNGPGYKVVGGERENVSMVDYAHNNYQAQSAVPLRHETHGGEDVAVFSKGPMAHLLHGVHEQNYVPHVMAYAACIGANLGHCAPAS"}}, "target": "VCAP-102 capsid (adeno-associated virus 9) (UniProt Q6JC40)", "test": "SPR"}
{"binder": "B1", "values": [{"measurement": "Kd", "value": 20, "unit": "nM"}]}
